This series concerns the target XRCC1 (UniProt P18887 1-633). As to the kind of experiment: DLS (DNA-induced higher-order assembly); elevated DNA concentration; Rh ~135 to ~740 nm vs 6.7 nm without DNA; DLS and microscopy buffer not given in the material; activity assay: 50 mM Tris-HCl pH 7.5, 5 mM Mg2+, 0.5 mM DTT, 0.25 mg/mL BSA, 37 °C. Kd values in Table 1 a. The conditions noted are these: protein: recombinant; tags: His-tag; chain copies: 2; label: 5'-32P on upstream strand as printed; 1-nt gap (template G) between strands 1 and 2, both paired to strand 3; blunt outer ends.

Consider one molecule from article PMC11241748, “DNA Repair Protein XRCC1 Stimulates Activity of DNA Polymerase λ under Conditions of Microphase Separation”.

B1: gap-DNA (dsDNA)
DNA 1: GGCGATTAAGTTGGG
DNA 2: AACGTCAGGGTCTTCC
DNA 3: GGAAGACCCTGACGTTGCCCAACTTAATCGCC
modifications: 5'-phosphate on downstream strand (5' margin of gap)
In the case of B1, the binding result was “binds”.
